Values belong to the binder of their own block, whether it stands above or below them.
How the values were obtained:
[1] = biological target: human B7-H3 expressed on A375 tumor cells (human) (UniProt Q5ZPR3); experiment: flow cytometry on A375 cells, MFI(PE); unit from the axis Conc (nM)
[2] = biological target: human B7-H3 protein (human) (UniProt Q5ZPR3); experiment: Octet (BLI) epitope binning on captured human B7-H3; competitor AHP05562
[3] = biological target: human B7-H3 (4Ig) protein (his tag) (human) (UniProt Q5ZPR3); experiment: SPR (Biacore T200), antibody captured on Protein A chip, B7-H3 injected, 1:1 model
[4] = biological target: human B7-H3 protein (human) (UniProt Q5ZPR3); experiment: Octet (BLI) epitope binning on captured human B7-H3; competitor CA84D
[5] = biological target: human B7-H3 protein (human) (UniProt Q5ZPR3); experiment: Octet (BLI) epitope binning on captured human B7-H3; competitor AHP06345
[6] = biological target: human B7-H3 expressed on A375 tumor cells (human) (UniProt Q5ZPR3); experiment: flow cytometry on A375 cells, MFI(PE); unit from the axis Conc (nM); remark: listed apart in the source
[7] = biological target: human B7-H3 protein (human) (UniProt Q5ZPR3); experiment: Octet (BLI) epitope binning on captured human B7-H3; competitor 72D1D11
[8] = biological target: human B7-H3 expressed on A375 tumor cells (human) (UniProt Q5ZPR3); experiment: flow cytometry on A375 cells, MFI(PE); unit from the axis Conc(nM)
[9] = biological target: human B7-H3 expressed on A375 tumor cells (human) (UniProt Q5ZPR3); experiment: flow cytometry on A375.S2 cells, MFI(647); unit from the axis Conc (nM)
[10] = biological target: human B7-H3 expressed on A375 tumor cells (human) (UniProt Q5ZPR3); experiment: flow cytometry on A375 cells, MFI(PE); unit from the axis Conc (nM); remark: listed apart in the source
[11] = biological target: human B7-H3 expressed on A375 tumor cells (human) (UniProt Q5ZPR3); experiment: as above; remark: listed apart in the source
[12] = biological target: human B7-H3 expressed on A375 tumor cells (human) (UniProt Q5ZPR3); experiment: flow cytometry on A375 cells, MFI(647); unit from the axis Conc (nM); fit value of a flat curve

EC50 [1]: 0.23 nM
B1: 81C8A1-z3 (antibody, V domains shown)
VH: QVTLKESGPALVKPTQTLTLTCTFSGFSLSTSGMGVSWIRQPPGKALEWLAHIYWDDDRRYNPSLKSRLTISKDTSKNQVVLTMTNMDPVDTATYYCARSPYGSEAYWGQGTLVTVSS
VL: EIVLTQSPDFQSVTPKEKVTITCRASSSVSFIQWYQQKPDQSPKPWIYSPSNLASGVPSRFSGSGSGTDFTLTINSLEAEDAATYYCQQWSSYPWTFGQGTKVEIK

EC50 [1]: 0.25 nM
B2: 81C8A1-z8 (antibody, V domains shown)
VH: QVTLKESGPALVKPTQTLTLTCTFSGFSLSTSGMGVSWIRQPPGKALEWLAHIYWDDDRRYNPSLKSRLTISRDTSKNQVVLTMTNMDPVDTATYYCARSPYGSEAYWGQGTLVTVSS
VL: EIVLSQSPDFQSVTPKEKVTITCRASSSVSFIQWYQQKPDQSPKPWIYSPSNLASGVPSRFSGSGSGTDYTLTINSLEAEDAATYYCQQWSSYPWTFGQGTKVEIK

EC50 [1]: 0.28 nM
B3: 81C8A1-z4 (antibody, V domains shown)
VH: QVTLKESGPALVKPTQTLTLTCTFSGFSLSTSGMGVSWIRQPPGKALEWLAHIYWDDDRRYNPSLKSRLTISKDTSKNQVVLTMTNMDPVDTATYYCARSPYGSEAYWGQGTLVTVSS
VL: EIVLSQSPDFQSVTPKEKVTITCRASSSVSFIQWYQQKPDQSPKPWIYSPSNLASGVPSRFSGSGSGTDYTLTINSLEAEDAATYYCQQWSSYPWTFGQGTKVEIK

EC50 [1]: 0.39 nM
B4: 81C8A1-z7 (antibody, V domains shown)
VH: QVTLKESGPALVKPTQTLTLTCTFSGFSLSTSGMGVSWIRQPPGKALEWLAHIYWDDDRRYNPSLKSRLTISRDTSKNQVVLTMTNMDPVDTATYYCARSPYGSEAYWGQGTLVTVSS
VL: EIVLTQSPDFQSVTPKEKVTITCRASSSVSFIQWYQQKPDQSPKPWIYSPSNLASGVPSRFSGSGSGTDFTLTINSLEAEDAATYYCQQWSSYPWTFGQGTKVEIK

inhibition ratio [2]: 90.6%
Kd [3]: 0.196 nM
koff [3]: 0.000111 s⁻¹
kon [3]: 567000 M⁻¹ s⁻¹
EC50 [1]: 0.25 nM
inhibition ratio [4]: -6.3%
inhibition ratio [5]: -12.1%
EC50 [6]: 0.17 nM
inhibition ratio [7]: 95.4%
B5: 81C8A1 (antibody, V domains shown)
VH: QVTLKESGPGILQPSQTLSLTCSFSGFSLSTSGMGVSWIRQPPGKGLEWLAHIYWDDDRRYNPSLKSRLTISRDTSRNQVFLQITTVDTADTATYYCARSPYGSEAYWGQGTLVIVSA
VL: QIVLSQSPTILSAFPGEKVTMTCRASSSVSFIQWYQQKSGSSPKPWIYSPSNLASGVPTRFSGSGSGTSYSLTIGRVEAEDAATYYCQQWSSYPWTFGGGTKVEIK

inhibition ratio [2]: -3.53%
Kd [3]: 0.52 nM
koff [3]: 0.000862 s⁻¹
kon [3]: 1.66e+06 M⁻¹ s⁻¹
EC50 [8]: 2.4 nM
inhibition ratio [4]: 80.1%
inhibition ratio [5]: 5.92%
B6: AHP05564 (antibody, V domains shown)
VH: EVQLVETGGGVVQPGRSLRLSCAASGFTFSSSGMHWVRQAPGKGLEWVAVISYDVTNKYYVDSVKGRFTISRDNSENTLYLQMNSLRAEDTGVYYCVRDGGPRWLGWYFDLWGRGTLVTVSS
VL: NIQMTQSPSSQSASVGDRVTITCRANQAIANSLAWYQQKPGKAPKLLLFGTSLLHSGVPSRFSGSGSGTEYTLTISSLQPDDFGTYYCQQYFSFPRTFGQGTQVDVY

inhibition ratio [2]: -24.4%
inhibition ratio [4]: -18.3%
inhibition ratio [5]: 90%
EC50 [9]: 0.19 nM
inhibition ratio [7]: -32.6%
B7: 312E1E2 (antibody, V domains shown)
VH: QVQLQQSGPELVRPGVSVKISCKGSGYTFTDYAMHWVKQSHAKSLEWIGIVSTHYGNTNYNQNFKGKATMTVDKSSSTVYMELARLTSEDSAIYYCARSEGLRLDWFAHWGQGTLVTVSA
VL: DIQMTQSPASLSASVGEIVTITCRASENIYSYLAWYQQKQGKSPHLLVYNAKTLAEGVPSRFSGSGSGTQFSLKISRLQPEDFGSYYCQNHYVFPFTFGSGTKLEIK

inhibition ratio [2]: -22.4%
inhibition ratio [4]: -8%
inhibition ratio [5]: -11.5%
EC50 [9]: 0.7 nM
inhibition ratio [7]: 98.9%
B8: 429H9F10 (antibody, V domains shown)
VH: QIQLVQSGPELKKPGETVKISCKASGYTFTYYGLNWVKQAPGKGLRWMGWINTSSGVPTYADDFKGRFAISLESSASTVFLEISNLKNEDTAAYFCAKDDGYFYTMDHWGQGTSVTVSS
VL: DIVMTQPPLSLPVSLGDQASISCRSSQSLVHNNGKTYLHWYLQKPGQSPKLLIYKVSNRFSGVPDRFSGSGSGTDFTLKISRVETEDLGVYFCSQSTQVPWTFGGGTKLEIK

EC50 [10]: 0.32 nM
B9: 72D1D11-z16 (antibody, V domains shown)
VH: QIQLVQSGSELKKPGASVKVSCKASGYTFTNLGLNWVKQAPGQGLKWMGWINTAGGQPTYAEDFKGRCVFSLDTSVSTAYLQISSLKAEDTAVYFCARDDGYYYTMDYWGQGTTVTVSS
VL: DIVMTQSPLSLPVTPGEPASISCRSSQSLVHSNGKTYLHWYLQKPGQSPQLLIYKVSNRFSGVPDRFSGSGSGTDFTLKISRVEAEDVGVYFCSQSTHVPWTFGGGTKLEIK

EC50 [11]: 0.49 nM
B10: 72D1D11-p1 (antibody, V domains shown)
VH: QIQLVQSGPELKKPGETVKISCKASGYTFTNLGLNWVKQAPGKGLKWMGWINTAGGQPTYAEDFKGRCAFSLETSASTAYLQINNLKNEDTATYFCARDDGYYYTMDYWGQGTSVTVSS
VL: DIVMTQTPLSLPVSLGDQASISCRSSQSLVHSNAKTYLHWYLQKPGQSPKLLIYKVSNRFSGVPDRFSGSGSGTDFTLKISRVEAEDLGVYFCSQSTHVPWTFGGGTKLEIK

EC50 [10]: 0.35 nM
B11: 72D1D11-z12 (antibody, V domains shown)
VH: QVQLVQSGSELKKPGASVKVSCKASGYTFTNLGLNWVRQAPGQGLKWMGWINTAGGQPTYAEDFKGRCVFSLDTSVSTAYLQISSLKAEDTAVYFCARDDGYYYTMDYWGQGTTVTVSS
VL: DIVMTQSPLSLPVTPGEPASISCRSSQSLVHSNGKTYLHWYLQKPGQSPQLLIYKVSNRFSGVPDRFSGSGSGTDFTLKISRVEAEDVGVYFCSQSTHVPWTFGGGTKLEIK

EC50 [11]: 0.54 nM
B12: 72D1D11-p2 (antibody, V domains shown)
VH: QIQLVQSGPELKKPGETVKISCKASGYTFTNLGLNWVKQAPGKGLKWMGWINTAGGQPTYAEDFKGRCAFSLETSASTAYLQINNLKNEDTATYFCARDDGYYYTMDYWGQGTSVTVSS
VL: DIVMTQTPLSLPVSLGDQASISCRSSQSLVHSQGKTYLHWYLQKPGQSPKLLIYKVSNRFSGVPDRFSGSGSGTDFTLKISRVEAEDLGVYFCSQSTHVPWTFGGGTKLEIK

EC50 [10]: 0.57 nM
B13: 72D1D11-z14 (antibody, V domains shown)
VH: QIQLVQSGSELKKPGASVKVSCKASGYTFTNLGLNWVKQAPGQGLKWMGWINTAGGQPTYAEDFKGRCVFSLDTSVSTAYLQISSLKAEDTAVYFCARDDGYYYTMDYWGQGTTVTVSS
VL: DIVMTQTPLSLPVTPGEPASISCRSSQSLVHSNGKTYLHWYLQKPGQSPQLLIYKVSNRFSGVPDRFSGSGSGTDFTLKISRVEAEDVGVYFCSQSTHVPWTFGGGTKLEIK

EC50 [10]: 0.51 nM
B14: 72D1D11-z9 (antibody, V domains shown)
VH: QVQLVQSGSELKKPGASVKVSCKASGYTFTNLGLNWVRQAPGQGLKWMGWINTAGGQPTYAEDFKGRCVFSLDTSVSTAYLQISSLKAEDTAVYFCARDDGYYYTMDYWGQGTTVTVSS
VL: DIVMTQTPLSLPVTPGEPASISCRSSQSLVHSNGKTYLHWYLQKPGQSPQLLIYKVSNRFSGVPDRFSGSGSGTDFTLKISRVEAEDVGVYYCSQSTHVPWTFGGGTKLEIK

EC50 [10]: 0.36 nM
B15: 72D1D11-z11 (antibody, V domains shown)
VH: QVQLVQSGSELKKPGASVKVSCKASGYTFTNLGLNWVRQAPGQGLKWMGWINTAGGQPTYAEDFKGRCVFSLDTSVSTAYLQISSLKAEDTAVYFCARDDGYYYTMDYWGQGTTVTVSS
VL: DIVMTQSPLSLPVTPGEPASISCRSSQSLVHSNGKTYLHWYLQKPGQSPQLLIYKVSNRFSGVPDRFSGSGSGTDFTLKISRVEAEDVGVYYCSQSTHVPWTFGGGTKLEIK

EC50 [12]: 20900 nM
B16: 72D1D11-z3p6 (antibody, V domains shown)
VH: QVQLVQSGSELKKPGASVKVSCKASGYTFTNLGLNWVRQAPGQGLEWMGWINTAGGQPTYAEDFKGRFVFSLDTSVSTAYLQISSLKAEDTAVYYCARDRGYYYTMDYWGQGTTVTVSS
VL: DIVMTQSPLSLPVTPGEPASISCRSSQSLVHSNAKTYLHWYLQKPGQSPQLLIYKVSNRFSGVPDRFSGSGSGTDFTLKISRVEAEDVGVYYCSQSTHVPWTFGGGTKLEIK

EC50 [10]: 0.36 nM
B17: 72D1D11-z13 (antibody, V domains shown)
VH: QIQLVQSGSELKKPGASVKVSCKASGYTFTNLGLNWVKQAPGQGLKWMGWINTAGGQPTYAEDFKGRCVFSLDTSVSTAYLQISSLKAEDTAVYFCARDDGYYYTMDYWGQGTTVTVSS
VL: DIVMTQTPLSLPVTPGEPASISCRSSQSLVHSNGKTYLHWYLQKPGQSPQLLIYKVSNRFSGVPDRFSGSGSGTDFTLKISRVEAEDVGVYYCSQSTHVPWTFGGGTKLEIK

EC50 [10]: 0.47 nM
B18: 72D1D11-z15 (antibody, V domains shown)
VH: QIQLVQSGSELKKPGASVKVSCKASGYTFTNLGLNWVKQAPGQGLKWMGWINTAGGQPTYAEDFKGRCVFSLDTSVSTAYLQISSLKAEDTAVYFCARDDGYYYTMDYWGQGTTVTVSS
VL: DIVMTQSPLSLPVTPGEPASISCRSSQSLVHSNGKTYLHWYLQKPGQSPQLLIYKVSNRFSGVPDRFSGSGSGTDFTLKISRVEAEDVGVYYCSQSTHVPWTFGGGTKLEIK

Source: US20250313632A1
